Numbering of substitutions follows the chain as printed.
B1: huSP34.6.1 Fab-HF (Fab, V domains shown)
VH: EVQLVESGGGLVQPGGSLRLSCAASGFTFSTYAMNWVRQAPGKGLEWVGRIRSKYNNYATYYADSVKGRFTISRDNSKNTLYLQMNSLRAEDTAMYYCVRHGNFGNSYVSWFAVWGQGTLVTVSS
VL: QAVVTQEPSLTVSPGGTVTLTCRSSTGAVTTSNYANWVQQKPGQAPRGLIGGTNKRAPWTPARFSGSLIGDKAALTLSGAQPEDEAEYYCALWYSNLWVFGGGTKLTVL
B2: huSP34.8.2 Fab-HF (Fab, V domains shown)
VH: B1 VH with T31D, I51T, D64A, N76D, T80S, R89K, A90T, M95V, N106H
VL: B1 VL with R23G, N54S, K55N, I69L, D71G
B3: huSP34.9.1 Fab-HF (Fab, V domains shown)
VH: B1 VH with T31D, I51T, N57S, D64A, N76D, T80S, R89K, A90T, M95V
VL: B1 VL
B4: huSP34.8.5 Fab-HF (Fab, V domains shown)
VH: B1 VH with T31D, I51T, D64A, N76D, T80S, R89K, A90T, M95V, N106H
VL: B1 VL with R23G, S32G, N33H, N54S, K55N, I69L, D71G, N96A, L97R
B5: huSP34.9.4 Fab-HF (Fab, V domains shown)
VH: B1 VH with T31D, I51T, N57S, D64A, N76D, T80S, R89K, A90T, M95V
VL: B1 VL with R23G, N33H, N54S, I69L, D71G, N96A
B6: huSP34.6.4 Fab-HF (Fab, V domains shown)
VH: B1 VH
VL: B1 VL with R23G, N33H, N54S, I69L, D71G, N96A
B7: huSP34.10.2 Fab-HF (Fab, V domains shown)
VH: B1 VH with T31D, I51T, N57S, D64A, N76D, T80S, R89K, A90T, M95V, N106H
VL: B1 VL with R23G, N54S, K55N, I69L, D71G
B8: huSP34.7.1 Fab-HF (Fab, V domains shown)
VH: B1 VH with T31D, I51T, D64A, N76D, T80S, R89K, A90T, M95V
VL: B1 VL
B9: huSP34.8.6 Fab-HF (Fab, V domains shown)
VH: B1 VH with T31D, I51T, D64A, N76D, T80S, R89K, A90T, M95V, N106H
VL: QAVVTQPPSLTVSPGGTVTLTCGSSTGAVTTGHYANWVQQKPGQAPRGLIGGTSNRAPGVPARFSGSLSGGKAALTISGAQPEDEAEYYCALWYSARWVFGGGTKLTVL
B10: huSP34.6.5 Fab-HF (Fab, V domains shown)
VH: B1 VH
VL: B9 VL with P7E, G59W, V60T, S69L, I77L
B11: huSP34.9.5 Fab-HF (Fab, V domains shown)
VH: B1 VH with T31D, I51T, N57S, D64A, N76D, T80S, R89K, A90T, M95V
VL: B9 VL with P7E, G59W, V60T, S69L, I77L
B12: huSP34.6.2 Fab-HF (Fab, V domains shown)
VH: B1 VH
VL: B1 VL with R23G, N54S, K55N, I69L, D71G
B13: huSP34.10.1 Fab-HF (Fab, V domains shown)
VH: B1 VH with T31D, I51T, N57S, D64A, N76D, T80S, R89K, A90T, M95V, N106H
VL: B1 VL
B14: huSP34.8.1 Fab-HF (Fab, V domains shown)
VH: B1 VH with T31D, I51T, D64A, N76D, T80S, R89K, A90T, M95V, N106H
VL: B1 VL
B15: huSP34.10.4 Fab-HF (Fab, V domains shown)
VH: B1 VH with T31D, I51T, N57S, D64A, N76D, T80S, R89K, A90T, M95V, N106H
VL: B1 VL with R23G, N33H, N54S, I69L, D71G, N96A
B16: huSP34.9.2 Fab-HF (Fab, V domains shown)
VH: B1 VH with T31D, I51T, N57S, D64A, N76D, T80S, R89K, A90T, M95V
VL: B1 VL with R23G, N54S, K55N, I69L, D71G
B17: huSP34.8.4 Fab-HF (Fab, V domains shown)
VH: B1 VH with T31D, I51T, D64A, N76D, T80S, R89K, A90T, M95V, N106H
VL: B1 VL with R23G, N33H, N54S, I69L, D71G, N96A

biological target: T1, CD3 expressed on cell-surface of primary human T cells (human, UniProt P07766 23-207; P04234 22-171); test: flow cytometry competition vs murine SP34-AF488 on human T cells, n = 1
T1 construct: also called cell-surface CD3; human CD3
T1 sequence (P07766 23-207 limits assumed, chain 1 of 2): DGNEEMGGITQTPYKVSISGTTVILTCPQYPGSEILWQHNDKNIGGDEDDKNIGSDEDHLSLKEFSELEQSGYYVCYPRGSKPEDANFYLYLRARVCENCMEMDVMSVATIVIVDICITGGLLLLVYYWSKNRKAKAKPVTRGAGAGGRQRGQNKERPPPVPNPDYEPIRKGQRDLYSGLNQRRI
T1 sequence (P04234 22-171 limits assumed, chain 2 of 2): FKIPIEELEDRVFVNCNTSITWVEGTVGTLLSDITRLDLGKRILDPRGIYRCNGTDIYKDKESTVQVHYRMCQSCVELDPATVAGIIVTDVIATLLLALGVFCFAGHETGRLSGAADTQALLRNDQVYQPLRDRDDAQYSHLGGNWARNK
Experimental: Binding of humanized SP34 Fab variants to CD3 expressed on cell-surface of primary human T cells was evaluated in a flow cytometry-based competition assay.

IC50, > 20 µg/mL:
B1
B2
B3
B4
B5
B6
B7
B8
B9
B10
B11
B12
B13
B14
B15
B16
B17

From patent US20230056252A1 (Gilead, published 2023)
